This test addresses human LAG‐3 on JRT LAG‐3^+ C8 cells (human) (UniProt P18627). In words: flow cytometry on cells.

The source of these data is article PMC8101287.

Sequence of human LAG‐3 on JRT LAG‐3^+ C8 cells (human) (P18627 23-525): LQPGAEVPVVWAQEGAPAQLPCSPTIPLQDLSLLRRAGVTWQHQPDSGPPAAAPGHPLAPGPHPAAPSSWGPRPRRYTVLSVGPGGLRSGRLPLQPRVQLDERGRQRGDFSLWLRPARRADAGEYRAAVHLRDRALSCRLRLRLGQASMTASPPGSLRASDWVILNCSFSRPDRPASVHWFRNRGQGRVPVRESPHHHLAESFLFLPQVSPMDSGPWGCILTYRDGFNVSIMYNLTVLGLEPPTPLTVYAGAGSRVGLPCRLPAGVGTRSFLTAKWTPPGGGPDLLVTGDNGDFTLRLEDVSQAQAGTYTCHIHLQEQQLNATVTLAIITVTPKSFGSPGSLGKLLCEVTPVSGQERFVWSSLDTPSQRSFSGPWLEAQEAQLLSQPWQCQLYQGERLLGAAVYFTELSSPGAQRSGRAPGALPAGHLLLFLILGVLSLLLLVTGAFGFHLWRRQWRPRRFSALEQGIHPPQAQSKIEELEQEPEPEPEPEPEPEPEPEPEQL

As to “PE labeled pHLA‐DR1 dextramers loaded with HA_(306‐318) peptide (peptide-MHC)”, the percent of cells with detectable multimer staining is 19%.
